Measurements taken from US20160145343A1.

B1: M20 (antibody, human IgG1, kappa, V domains shown)
VH: EVQLVESGGGLVQPGGSLRLSCAASGFTFSSYWMHWVRQAPGKGLVWVSHINSDGSSTSYADSVKGRFTISRDNAKNTLYLQMNSLRAEDTAVYYCARELADWGQGTLVTVSS
VL: DVVMTQSPLSLPVTLGQPASISCRSSQSLVYSDGNTYLNWFQQRPGQSPRRLIYQVSNRDSGVPDRFSGSGSGTDFTLKIGRVEAEDVGVYFCMQGTHWPWTFGQGTKVEIKR
B2: M22 (antibody, human IgG1, kappa, V domains shown)
VH: EVQLVESGGGLVQPGGSLRLSCAASGFTVSSNYMSWVRQAPGKGLEWVSVIYSGGTTYYADSVKGRFTISRHNSKNTLYLQMNSLRAEDTAVYYCARDHDPDYGGYYMDVWGKGTTVTVSS
VL: B1 VL
B3: M21 (antibody, human IgG1, kappa, V domains shown)
VH: EVQLVESGGGLVQPGGSLRLSCAASGFTVSSNYMSWVRQAPGKGLEWVSVIYSGGSTYYADSVKGRFTISRDNSKNTLYLQMNSLRAEDTAVYYCARDQEHYFDGSGYYVDYWGQGTLVTVSS
VL: B1 VL
B4: M3 (antibody, human IgG1, lambda, V domains shown)
VH: QLQLQESGPGLVKPSETLSLTCTVSGGSISSSSYYWGWIRQPPGKGLEWIGSIYYSGSTHYNPSLKSRVTISVDTSKNQFSLKLRSVTAADTAVYYCARGVVEVRGNHYYYYYMDVWGKGTTVTVSS
VL: QSVLTQPPSVSGAPGQRVTISCTGSSSNIGAGYDVHWYQQLPGTAPKLLIYGNSYRPSGVPDRFSGSKSGTSASLAITGLQAEDEADYYCQSYDSSLSGSGVFGGGTKLTVLG
B5: M7 (antibody, human IgG1, kappa, V domains shown)
VH: EVQLVESGGGLVQPGGSLRLSCAASGFTVSSNYMSWVRQAPGKGLEWVSVIYSGGSTYYADSVKGRFTISRDNSKNTLYLQMNSLRAEDTAVYYCARGSTNTYYYDSSGHPWGQGTMVTVSS
VL: DIVMTQSPLSLPATPGEPASISCRSSQSLLHSNGYTYLDWYLQKPGQSPQVLIYLASNRASGVPDRFSGSGSGTNFTLKISRVEAEDVGLFYCMQALQTPQTFGQGTKLEIKR

Each binder was assayed against Normal MUC1 on non-transformed MCF-10A cells and on normal tissue (human) (UniProt P15941) (assay: flow cytometry, MCF10a cells).

| percentage of APC+ stained cells | Binder |
| --- | --- |
| 4.45% | B1 |
| 2.17% | B2 |
| 2.67% | B3 |
| 3.14% | B4 |
| 0.95% | B5 |

What follows are binders tested against SEQ ID NO: 346 glycopeptide with TF-antigen at Thr16 (assay: ELISA on coated glycopeptide, antibody 0.01 mg/ml, mean of 3).

| ELISA absorbance at 450 nm | Binder |
| --- | --- |
| 0.1 absorbance | B1 |
| 0.1 absorbance | B2 |
| 0.1 absorbance | B3 |

The binders below were run against SEQ ID NO: 346 glycopeptide with Tn-antigen at Thr4, Thr9 and Thr16 in the same assay as above.

| ELISA absorbance at 450 nm | Binder |
| --- | --- |
| 0.1 absorbance | B1 |
| 0.1 absorbance | B2 |
| 0.1 absorbance | B3 |

Each binder was assayed against BSA (UniProt P02769) (assay: ELISA on coated BSA, antibody 0.01 mg/ml, mean of 3).
Sequence of BSA (P02769 25-607 limits assumed): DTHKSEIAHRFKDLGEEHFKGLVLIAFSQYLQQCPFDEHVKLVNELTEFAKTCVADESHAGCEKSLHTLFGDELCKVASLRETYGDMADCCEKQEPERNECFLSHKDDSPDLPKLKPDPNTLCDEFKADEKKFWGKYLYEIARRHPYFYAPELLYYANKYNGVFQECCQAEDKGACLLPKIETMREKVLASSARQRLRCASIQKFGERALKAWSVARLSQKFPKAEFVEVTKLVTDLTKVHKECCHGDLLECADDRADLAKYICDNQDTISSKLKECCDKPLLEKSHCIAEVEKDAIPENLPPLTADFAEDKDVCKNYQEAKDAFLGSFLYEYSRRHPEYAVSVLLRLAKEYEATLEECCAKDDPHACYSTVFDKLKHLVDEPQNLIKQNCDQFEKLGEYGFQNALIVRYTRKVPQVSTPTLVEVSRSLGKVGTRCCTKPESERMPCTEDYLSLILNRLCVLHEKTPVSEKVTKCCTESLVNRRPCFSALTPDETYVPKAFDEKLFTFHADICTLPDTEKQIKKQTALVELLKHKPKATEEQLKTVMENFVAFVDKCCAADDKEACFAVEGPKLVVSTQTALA

| ELISA absorbance at 450 nm | Binder |
| --- | --- |
| 0.1 absorbance | B1 |
| 0.1 absorbance | B2 |
| 0.1 absorbance | B3 |
| 0.1 absorbance | B4 |
| 0.1 absorbance | B5 |
